# Measured values from paper PMC12095580, “Wnt signalosome assembly is governed by conformational flexibility of Axin and by the AP2 clathrin adaptor” (Nature Communications, 2025).
# Non-standard residues stand in square brackets, D forms with d. No end group written: not given here. pS = N[C@@H](COP(=O)(O)O)C(=O)O; Lip = Lipoyl solubility tag; His6x = hexahistidine tag
# T1: His6x-Lip-L1_(LRP6) (LRP6_(1463-1538) bearing YYYF > A) (UniProt O75581 1463-1538, YYYF > A (Y1517; position worked out from S1516 and S1521, p-0048) | YYYF > A …)
# T1 sequence: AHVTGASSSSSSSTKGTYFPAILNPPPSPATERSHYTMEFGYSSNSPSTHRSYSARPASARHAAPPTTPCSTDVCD
# T2: RKR mutant Axin Lip-LIRα (UniProt O15169 345-361, RKR > A (R347) | RKR > A (K350) | RKR > A (R354))
# T2 chain: PYAIRAQHRAEMQESVQ
# T3: Axin Lip-LIRα (UniProt O15169 345-361)
# T3 chain: PYRIRKQHRREMQESVQ
# T4: His6x-Lip-L1_(LRP6) (LRP6_(1463-1538) bearing YYYF > A) (UniProt O75581 1463-1538, YYYF > A (Y1517; position worked out from S1516 and S1521, p-0048) | YYYF > A …, Lipoyl solubility tag omitted. Mutated positions are not given; inferred because LIRup (308-344) should contain exactly five Asp and one Glu, in the order D-E-D4, and the text says all …)
# T4 sequence: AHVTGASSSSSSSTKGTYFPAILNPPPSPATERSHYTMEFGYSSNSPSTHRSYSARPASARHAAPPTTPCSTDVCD
# T5: phosphorylated Axin LIRup peptide (43PPP, Axin_(308-351) including pS317, pS321, pS325) (UniProt O15169 308-351, phosphoserine at 317, 321 and 325)
# T5 construct: Axin1 LIRup with 7 residues of LIRα; A308-Q351 counts 44 residues though the peptide is called 43PPP; source: synthetic peptide, bought: Biomatic
# T5 peptide (looked up): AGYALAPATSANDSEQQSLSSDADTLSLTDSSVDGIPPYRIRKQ
# Legend:
# [1] = target: LRP6-GFP (UniProt O75581); test: coIP (GFP IP, α-Axin1 blot densitometry); details: co-expressed with wt GSK3β-HA
# [2] = target: His6x-Lip-L2_(LRP6) (LRP6_(1539-1613)) (UniProt O75581); test: ITC; binding of GSK3 or Axin to the CPPSPYT element of the distal LRP6 ctail; constructs and concentrations not told
# [3] = target: GSK3β-HA (UniProt P49841); test: coIP (GFP IP, α-HA blot densitometry)
# [4] = target: FLAG-Axin1 (UniProt O15169); test: coIP (GFP IP, α-FLAG blot densitometry); details: HEK293T cells, co-expressed with wt GSK3β-HA
# [5] = target: LRP6-GFP (UniProt O75581); test: coIP (GFP IP, α-HA blot densitometry)
# [6] = target: Axin1 LIRα, 345-361 (UniProt O15169); test: ITC; details: reference: unphosphorylated 43mer peptide; sites S317,S321,S325
# [7] = target: His6x-Lip-A5_(Axin) (Axin_(308-366)) (UniProt O15169); test: ITC; 50 μM Axin fragment or GSK3β titrated with 500 μM Lip-L1_(LRP6); 25 °C, 25 mM sodium phosphate pH 6.7, 150 mM NaCl; one set of binding sites; apparent KD assuming 1:1
# [8] = target: T6, GSK3β-K85R (recombinant, full-length) (UniProt P49841 1-420, K85R); test: NMR titration; BEST-TROSY peak height attenuation (bleaching): 80 μM 15N-labelled protein +/- 80 μM unlabelled partner; 25 mM sodium phosphate pH 6.7, 150 mM NaCl, 293 K; details: both partners purified
# T6 construct: glycogen synthase kinase 3β, catalytically dead; also called catalytically-dead GSK3; source: E. coli BL21-CodonPlus(DE3)-RIL, purified (glutathione agarose, 3C cleavage, Superdex 200); not shown: GST, N-terminal, cleaved
# [9] = target: His6x-AP2μ (YxxΦ-binding domain of rat AP2μ) (rat); test: ITC; 114 or 100 μM His6x-AP2μ titrated with 2 mM (SYRHFA) or 1.74 mM (…) His6x-Lip-YxxΦ peptide; 25 °C, 50 mM Tris-HCl pH 7.4, 300 mM NaCl
# [10] = target: T1, His6x-Lip-L1_(LRP6) (LRP6_(1463-1538) …); test: ITC
# [11] = target: T2, RKR mutant Axin Lip-LIRα; test: ITC; phosphorylated 43PPP
# [12] = target: T3, Axin Lip-LIRα; test: ITC; phosphorylated 43PPP
# [13] = target: T4, His6x-Lip-L1_(LRP6) (LRP6_(1463-1538) …); test: ITC
# [14] = target: T5, phosphorylated Axin LIRup peptide …; test: ITC; 50 μM synthetic 43mer or 43PPP peptide in the cell titrated with 500 μM wt or RKR mutant Axin Lip-LIRα; 25 °C, 25 mM sodium phosphate pH 6.7, 150 mM NaCl; details: both partners purified
# [15] = HEK293T cells, co-expressed with wt FLAG-Axin1
# LRP6-GFP, sequence (O75581 20-1613): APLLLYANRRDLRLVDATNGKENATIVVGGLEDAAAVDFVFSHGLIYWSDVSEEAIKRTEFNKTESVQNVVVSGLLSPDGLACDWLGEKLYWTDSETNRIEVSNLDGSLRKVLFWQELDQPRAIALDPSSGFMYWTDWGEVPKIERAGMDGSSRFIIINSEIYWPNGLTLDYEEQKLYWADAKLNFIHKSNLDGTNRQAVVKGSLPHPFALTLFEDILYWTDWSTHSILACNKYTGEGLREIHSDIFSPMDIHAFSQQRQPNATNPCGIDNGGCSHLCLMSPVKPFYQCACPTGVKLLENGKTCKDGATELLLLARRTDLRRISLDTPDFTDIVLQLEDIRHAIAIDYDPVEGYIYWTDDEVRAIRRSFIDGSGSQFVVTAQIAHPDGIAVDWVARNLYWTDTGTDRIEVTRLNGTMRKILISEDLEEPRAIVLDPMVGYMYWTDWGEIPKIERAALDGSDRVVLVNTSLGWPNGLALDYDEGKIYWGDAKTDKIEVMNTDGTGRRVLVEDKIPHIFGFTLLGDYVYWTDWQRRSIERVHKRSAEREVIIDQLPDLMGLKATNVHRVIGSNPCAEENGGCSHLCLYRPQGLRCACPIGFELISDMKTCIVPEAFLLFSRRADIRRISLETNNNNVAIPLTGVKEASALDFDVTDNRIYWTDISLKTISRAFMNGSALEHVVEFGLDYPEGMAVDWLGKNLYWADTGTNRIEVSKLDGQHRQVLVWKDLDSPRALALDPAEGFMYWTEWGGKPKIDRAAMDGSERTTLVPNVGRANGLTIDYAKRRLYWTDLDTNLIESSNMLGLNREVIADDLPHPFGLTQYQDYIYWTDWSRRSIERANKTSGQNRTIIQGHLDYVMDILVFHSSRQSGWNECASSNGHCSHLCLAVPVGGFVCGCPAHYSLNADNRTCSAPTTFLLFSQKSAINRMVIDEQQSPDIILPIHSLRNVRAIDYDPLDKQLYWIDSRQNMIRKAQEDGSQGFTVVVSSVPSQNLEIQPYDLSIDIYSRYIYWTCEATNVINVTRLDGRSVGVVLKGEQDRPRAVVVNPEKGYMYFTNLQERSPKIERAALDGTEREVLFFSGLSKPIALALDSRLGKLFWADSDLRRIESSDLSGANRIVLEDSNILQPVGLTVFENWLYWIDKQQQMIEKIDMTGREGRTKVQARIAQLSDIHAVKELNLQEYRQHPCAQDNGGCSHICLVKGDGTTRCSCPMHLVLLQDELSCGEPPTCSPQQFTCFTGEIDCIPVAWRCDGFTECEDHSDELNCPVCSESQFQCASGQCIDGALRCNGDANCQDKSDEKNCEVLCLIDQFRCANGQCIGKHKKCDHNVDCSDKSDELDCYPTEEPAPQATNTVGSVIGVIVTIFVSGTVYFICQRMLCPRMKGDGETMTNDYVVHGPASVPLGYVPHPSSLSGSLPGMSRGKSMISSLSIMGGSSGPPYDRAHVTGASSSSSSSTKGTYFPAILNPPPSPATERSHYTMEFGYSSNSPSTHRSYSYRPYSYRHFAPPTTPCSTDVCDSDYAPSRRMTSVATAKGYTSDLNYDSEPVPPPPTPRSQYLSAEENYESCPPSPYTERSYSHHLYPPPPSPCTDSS
# His6x-Lip-L2_(LRP6) (LRP6_(1539-1613)), sequence (O75581 1539-1613): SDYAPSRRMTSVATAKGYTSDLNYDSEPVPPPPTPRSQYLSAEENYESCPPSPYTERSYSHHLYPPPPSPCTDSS
# FLAG-Axin1 (from UniProt O15169) S493A; S497A, sequence (O15169 whole entry, stated change not applied): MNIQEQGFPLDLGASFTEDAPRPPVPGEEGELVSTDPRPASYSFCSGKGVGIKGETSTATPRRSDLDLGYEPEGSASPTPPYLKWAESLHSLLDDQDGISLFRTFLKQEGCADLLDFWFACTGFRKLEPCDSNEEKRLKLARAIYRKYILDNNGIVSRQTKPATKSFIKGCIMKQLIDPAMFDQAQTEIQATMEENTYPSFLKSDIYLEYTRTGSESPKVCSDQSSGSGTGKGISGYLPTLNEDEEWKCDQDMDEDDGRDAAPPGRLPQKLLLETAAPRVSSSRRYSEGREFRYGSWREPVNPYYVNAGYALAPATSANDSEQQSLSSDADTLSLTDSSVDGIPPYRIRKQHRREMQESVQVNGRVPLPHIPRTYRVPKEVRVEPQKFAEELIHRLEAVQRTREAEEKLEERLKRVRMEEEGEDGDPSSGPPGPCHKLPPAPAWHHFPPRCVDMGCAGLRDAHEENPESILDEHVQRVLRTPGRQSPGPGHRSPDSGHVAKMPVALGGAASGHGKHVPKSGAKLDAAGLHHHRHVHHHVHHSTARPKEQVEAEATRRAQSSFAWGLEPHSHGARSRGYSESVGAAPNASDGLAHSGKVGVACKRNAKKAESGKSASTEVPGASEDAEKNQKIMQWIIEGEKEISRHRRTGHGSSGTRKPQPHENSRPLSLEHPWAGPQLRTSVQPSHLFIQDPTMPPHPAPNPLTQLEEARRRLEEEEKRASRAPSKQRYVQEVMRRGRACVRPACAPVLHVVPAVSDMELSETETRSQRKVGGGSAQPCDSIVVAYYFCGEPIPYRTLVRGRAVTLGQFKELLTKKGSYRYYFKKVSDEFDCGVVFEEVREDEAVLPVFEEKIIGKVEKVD
# FLAG-Axin1 (from UniProt O15169) S493D; S497D, sequence (O15169 whole entry, stated change not applied): as above
molecule,measurement,setting,value
FLAG-Axin1 (from UniProt O15169) S493A; S497A,ratio to parent,[1],1.57
"GSK3β (recombinant, full-length wt) (from UniProt P49841 1-420) (enzyme)",Kd,[2],> 500 µM
"LRP6-GFP (from UniProt O75581) m10 (PPPSPxS>PPPAPxA, motifs A-E)",ratio to parent,[3]; [15],0.07
same,ratio to parent,[3]; co-expressed with FLAG-Axin1 S1>A (the wt = 1.00 lane has wt Axin),0.01
same,ratio to parent,[4],0.11
GSK3β-HA (from UniProt P49841) VE>GR,ratio to parent,[5]; [15],0.05
same,ratio to parent,[5]; co-expressed with FLAG-Axin1 S1>A (the wt = 1.00 lane has wt Axin; wt GSK3β-HA with Axin S1>A reads 2.98),0.03
"Axin1 LIRup peptide, 308-351 (from UniProt O15169) 43PPP peptide (pS317, pS321, pS325)",binding against the reference,[6],stronger
His6x-Lip-L1_(LRP6) (LRP6_(1463-1538) bearing YYYF > A) (from UniProt O75581 1463-1538) (domain or fragment),Kd,[7],1.37 µM
FLAG-Axin1 (from UniProt O15169) S493D; S497D,ratio to parent,[1],0.56
"His6x-Lip-A3_(Axin) (Axin_(308-426)) (domain or fragment, UniProt O15169 308-426, looked up, Axin1 fragment with LIR, PRTxR motif and GIR; source: E. coli BL21-CodonPlus(DE3)-RIL, purified (Ni-NTA, Superdex 75); 15N-labelled where observed by NMR; not shown: Lipoyl solubility tag (Lip), N-terminal, kept) AGYALAPATSANDSEQQSLSSDADTLSLTDSSVDGIPPYRIRKQHRREMQESVQVNGRVPLPHIPRTYRVPKEVRVEPQKFAEELIHRLEAVQRTREAEEKLEERLKRVRMEEEGEDGD",Kd,[2],> 500 µM
same,binding result,[8],binds
{His6x-Lip}-SYRHFA [His6x-Lip-SYRHFA peptide],Kd,[9],16.2 µM
{His6x-Lip}-SYRPYSYRHFA [His6x-Lip-… peptide],Kd,[9],8 µM
Lip-RKR > A (in Lip-A5_(Axin)) (domain or fragment) AGYALAPATSANDSEQQSLSSDADTLSLTDSSVDGIPPYAIRAQHRAEMQESVQVNGRV,Kd,[10],5.15 µM
"AGYALAPAT[pS]AND[pS]EQQ[pS]LSSDADTLSLTDSSVDGIPPYRIRKQ [phosphorylated Axin LIRup peptide (43PPP, Axin_(308-351) including pS317, pS321, pS325)]",Kd,[11],448 µM
same,Kd,[12],47.9 µM
Lip-DED4 > A (in Lip-A5_(Axin)) (domain or fragment) AGYALAPATSANASAQQSLSSAAATLSLTASSVAGIPPYRIRKQHRREMQESVQVNGRV,Kd,[13],118 µM
"PYAIRAQHRAEMQESVQ (domain or fragment, UniProt O15169 345-361, looked up, Axin1 LIRα with R347, K350, R354 changed to alanine; also called Lip-LIRα RKR > A; not shown: Lipoyl solubility tag (Lip), N-terminal, kept) [RKR mutant Axin Lip-LIRα]",fold reduction of binding against wt Lip-LIRα,[14],~10 x
